{"source": "paper PMC4896396", "about": "(Journal of the American Chemical Society, 2016)", "proteins": {"B1": {"name": "full-length rat phenylalanine hydroxylase (wt-PheH) (enzyme, UniProt P04176 1-453, looked up)", "chain": "MAAVVLENGVLSRKLSDFGQETSYIEDNSNQNGAISLIFSLKEEVGALAKVLRLFEENDINLTHIESRPSRLNKDEYEFFTYLDKRTKPVLGSIIKSLRNDIGATVHELSRDKEKNTVPWFPRTIQELDRFANQILSYGAELDADHPGFKDPVYRARRKQFADIAYNYRHGQPIPRVEYTEEEKQTWGTVFRTLKALYKTHACYEHNHIFPLLEKYCGFREDNIPQLEDVSQFLQTCTGFRLRPVAGLLSSRDFLGGLAFRVFHCTQYIRHGSKPMYTPEPDICHELLGHVPLFSDRSFAQFSQEIGLASLGAPDEYIEKLATIYWFTVEFGLCKEGDSIKAYGAGLLSSFGELQYCLSDKPKLLPLELEKTACQEYSVTEFQPLYYVAESFSDAKEKVRTFAATIPRPFSVRYDPYTQRVEVLDNTQQLKILADSINSEVGILCNALQKIKS"}}, "biological_target": "the molecule itself", "assay": "SEC-SAXS", "data": [{"protein": "B1", "values": [{"measurement": "stoichiometry N", "result": 4}]}]}
